Reference: the DeepSol protein solubility set

Assay: soluble on expression in E. coli; label from the status in PepcDB or PDB records

Row | Sequence | soluble on expression in E. coli
1 | MGDTDRKLFVLDTNILLHEPFAIFSFQEHDVVIPMTVLEELDRIKDSKRDVARDARVAIRALEDLFKDATPDEISEGIPVSKEKPDQGSISILADFELQETVKAFADKAGDNRILNAVLYLQNKRAPREVVLITKDINMRLRAKGAGVRFVEDYRTDQLIDDIQYLTKGFQQREGDFWSGIDEVESYALGGKTYHKLSREPFDPTFINQYVIDEDSDFAGRVETINEDKLTLLDLSRERMMHRRAWDITPKNIYQAMALDALLDPDIDLVILTGAAGSGKTLLAMAAALEQTIEKGMFDKIIVTRNTPDIGESIGFLPGSEEEKMMPWLAAVTDTLEALHKHDHCTEGSLKYICDKANIQFKSINFMRGRSIQNAFVLLDECQNLTASQIKTIITRCGEGTKIVCSGNLAQIDSHYLTPVTSGLTYMVERFKNFEGSANIHLNGVVRSRLAEFAEENL | soluble
2 | MKILNRLATDVGLMLRRPPRQQYAALCYRLSKSNPEPEVLLLTSRDTGRWVIPKGWPMANKKAHAVAEQEAYEEAGVKGTVEKAPFGYYEYEKKLNSGINVPCKVQVHLLEVSEMRDSFPEKDARRLEWVSPREAGKRVNEPELKALMLAFDKRMAHSQ | not soluble
3 | MRIPFPSIKYPLIAILRGLKPEETEGVVGALIETGFRAIEIPLNSPDPFRSIEIAARMAPADCLIGAGTVLSVEDVASLDAAGGKLMVSPNADAEVITAAREKGMVTMPGVLTPTEALVAAKAGATGLKFFPASIIGPSGINAIRTILPKELIIAAVGGVSDKNFSDYTSAGIRAFGLGTSLYKPGMTAAEVRERATVTLAAYDAAIGG | not soluble
4 | MQSAKPLFDYPKYWAECFGPAPFLPMSREEMDLLGWDSCDIIIVTGDAYVDHPSFGMAIIGRLLESQGFRVGIIAQPNWQSKDDFMKLGEPNLFFGVAAGNMDSMINRYTADKKIRSDDAYTPGGMAGKRPDRASLVYSQRCKEAYKHVPIVLGGIEASLRRIAHYDYWQDKVRNSILIDACADILLYGNAERAIVEVAQRLSYGHKIEDITDVRGTAFIRRDTPQGWYEVDSTRIDRPGKVDKIINPYVNTQDTQACAIEQEKGNVEDPNEAKVVQILASPRMTRDKTVIRLPSVEKVRNDAVLYAHANRVLHLETNPGNARALVQKHGEVDVWFNPPPIPMTTDEMDYVFGMPYARVPHPAYGKEKIPAYDMIRFS | not soluble
5 | MSLERSLSMELVRVTEAAALASARWMGRGKKDEADEAATSAMRDVFDTVPMKGTVVIGEGEMDEAPMLYIGEKLGNGYGPRVDVAVDPLEGTNILASGGWNALTVIAVADHGTLLNAPDMYMQKIAVGPEAVGCIDIEAPVIDNLKAVAKAKNKDVEDVVATILNRERHAKIISELREAGARIKLINDGDVAGAINTAFDHTGVDILFGSGGAPEGVLSAVALKALGGEIIGKLLPQSEEEITRCHKMGLDLSKVLRMEDLVKGDDAIFAATGVTDGELLKGVQFKGSVGTTESLVIRAKSGTVRFVDGRHSLKKKPNLVIRPEGGSHHHHHH | soluble
6 | MIRLSEQSPLGTGRHRKCYAHPEDAQRCIKIVYHRGDGGDKEIRRELKYYAHLGRRLKDWSGIPRYHGTVETDCGTGYVYDVIADFDGKPSITLTEFAEQCRYEEDIAQLRQLLKQLKRYLQDNRIVTMSLKPQNILCHRISESEVIPVVCDNIGESTLIPLATWSKWCCLRKQERLWKRFIAQPALAIALQKDLQPRESKTLALTSREA | soluble
7 | MHHHHHHSSRQEPPKIHLDCPGRIPDTIVVVAGNKLRLDVPISGDPAPTVIWQKAITQGNKAPARPAPDAPEDTGDSDEWVFDKKLLCETEGRVRVETTKDRSIFTVEGAEKEDEGVYTVTVKNPVGEDQVNLTVKVID | soluble
8 | MAHHHHHHMDYYRLLADIGHTYLQLIPSTAHVEKVTGLAARYCIFTITHTQMLLHCLMLWKEARLGDGGGFIDYAKVRNLKICSGAAEHTAQSNADAHSSNEGKQKWRTIDRTASLLFTLQLLEANCRYYCLVFLANYCALLLRSYSCLTDQRKVNRVHANVVEHLDMVSRLVLDLAEEYPNEYLSRLIMANLPKPSNFDRECLSSMGASSHMGSQKILSFGNDQHRHLYASGYPWSPTQSALIPLILARTVRLTVQENVSRHSQAQLRSPAERLSYHYTRWHFNSGLVIVPGCSLYMLKKSLPGFVPGKSTFAHYATMAEHEELHVPRAAADVHWQRGSAAVPVPEDGGGAAPGSHRNPRKSEDSADAEKREALTKKCEERLIKKRRHINTDLHLSDERTCVALCLEEACALALPSLLLSCVLQKATREPHFREFMNNAMNLVLGLYGPASSEWHMMASFLRKHLEG | not soluble
